Assay results from patent US9168297B2, “Regulation of skin pigmentation by neuregulin-1 (NRG-1)” (The United States of America, as Represented by the …, priority 2010, dated 2015).

Legend:
ERBB2 = ERBB2 protein level by western blotting in melanocytes; format: cell-based, human
Procedure: FIGS. 7A and 7B are digital images illustrating expression of ERBBs after NRG-1 treatment. FIG. 7A) HEM-LP and HEM-DP melanocytes were treated with or without NRG-1 (50 ng/ml) for 5 days, and levels of ERBB2, ERBB3 or ERBB4 were detected by western blotting. Results shown are representative of three studies. FIG. 7B) Expression of ERBB2 was examined in HEM-LP and in HEM-DP melanocytes after 1 or 9 days or treatment with NRG-1 compared to vehicle-treated controls; the results are representative of two independent studies.
FIGS. 8A and 8B are digital images illustrating the mechanism of ERBB2 abrogation after NRG-1 treatment. FIG. 8A) ERBB2 mRNA levels in HEM-LP and in HEM-DP melanocytes were detected by RT-PCR after treatment with or without NRG-1 (50 ng/ml) for 1 day. FIG. 8B) MG132 (120 nM) was added to the melanocyte culture medium to inhibit proteasomal degradation during treatment of HEM-LP and HEM-DP melanocytes with or without NRG-1 (50 ng/ml). Proteins were extracted for each sample, and ERBB2 levels were detected by western blotting. Results are representative of three studies.
Fibroblast cultures in 100-mm dishes were solubilized in appropriate volumes of M-PER mammalian protein extraction reagent (Pierce Biotechnology, Rockford, Ill.) containing a Protease Inhibitor mixture (Roche, Mannheim, Germany) and phosphatase inhibitors. The protein concentration of each extract was measured using a BCA protein assay kit (Pierce, Rockford, Ill.). Cell extracts (20 μg) were separated on 8-16% gradient SDS polyacrylamide gels (Invitrogen, Carlsbad, Calif.), after which proteins were transferred to PVDF membranes (Invitrogen, Carlsbad, Calif.). Membranes were blocked for 1 hour in PBS or Tris buffered saline (TBS) containing 0.1% Tween 20 and 5% (w/v) nonfat dry milk powder and were incubated overnight at 4° C. with the primary antibody in PBS containing 0.1% Tween 20 and 2.5% (w/v) nonfat dry milk powder or in 0.1% Tween-TBS with 5% BSA, depending on the antibody. The following primary antibodies were used: anti-human DKK-1 (0.2 μg/ml), anti-human DKK-3 (0.1 μg/ml), anti-human bFGF (0.1 μg/ml), anti-human SCF (0.1 μg/ml), anti-human mouse monoclonal ERBB3 (1 μg/ml) and anti-human mouse monoclonal ERBB4 (2 μg/ml) antibodies from R&D Systems, neuregulin-1α/β1/2 (C-20) (1:500) and GAPDH (FL-335) (1:10,000) antibodies from Santa Cruz Biotechnology, ERBB2 rabbit monoclonal (1:1000) and phospho-Akt (Ser473) (1:1000) antibodies from Cell Signaling Technology. Membranes were then incubated with an HRP-linked anti-rabbit antibody (GE Healthcare) at 1:10,000 dilution or with an anti-goat antibody (DAKO) at 1:2,000 dilution at room temperature for 1 hour. Antigen-antibody complexes were detected using an ECL-plus Western blotting detection system (GE Healthcare). […]

HEM-LP melanocytes = assay: Melanin content assay (melanin/protein); format: cell-based, human; conditions: NRG-1 50 ng/ml
Procedure: FIGS. 6A and 6B are bar graphs illustrating the effect of NRG-1 on the pigmentation of cultured human melanocytes. FIG. 6A) Lightly-pigmented (HEM-LP) and FIG. 6B) Darkly-pigmented (HEM-DP) melanocytes were treated with or without NRG-1 (50 ng/ml) for 1, 3, 5 or 9 days and proteins were extracted from each sample. After centrifugation at 10,000 g for 15 minutes, precipitates were analyzed for melanin content, and the supernatants were analyzed for protein content. Results are the average of three studies±SD; statistically significant differences are indicated.
Melanin contents were determined by dissolving cell pellets overnight at room temperature in 200 μl 1 N NaOH, and melanin concentrations were quantitated by absorbance at 405 nm in a SpectraMax 250 ELISA reader (Molecular Devices) using a standard curve generated from synthetic melanin (Sigma-Aldrich, St. Louis, Mo.). Melanin content is expressed as μg melanin per μg protein. Each study was repeated at least three times.
The effects of NRG-1 on the pigmentation of human melanocytes were also examined. […] However, on day 9, when the cells had reached confluence, the pigmentation level of NRG-1-treated HEM-LP melanocytes was about 35% higher than the control (FIG. 6A).

B1: NRG-1: commercially available recombinant human neuregulin-1 (rhNRG-1-β1, R&D Systems), SEQ ID NO: 11 (protein)
chain: TSHLVKCAEKEKTFCVNGGECFMVKDLSNPSRYLCKCPNEFTGDRCQNYVMASFYKHLGIEFMEAEELYQK
Expression of ERBB2 (ERBB2; HEM-LP and HEM-DP, NRG-1 50 ng/ml, 5 days): almost completely undetectable | Level of ERBB2 (ERBB2; both types of melanocytes, NRG-1, 1 day): significantly decrease | ERBB2 expression (ERBB2; both types of melanocytes, NRG-1, day 3, lasted until day 9): completely disappeared | Pigmentation level higher than the control (HEM-LP melanocytes; day 9, confluent): about 35% | Level of pigmentation (melanin/protein) (HEM-LP melanocytes; days 1 through 5, subconfluent, vs control): not significantly different
